# Measurements published in the RNAGym collection of RNA variant scans (doi:10.1093/molbev/msab373).
# B1: Azoarcus group I ribozyme (parent)
# chain: GUGCCUUGCGCCGGGAAACCACGCAAGGGAUGGUGUCAAAUUCGGCGAAACCUAAGCGCCCGCCCGGGCGUAUGGCAACGCCGAGCCAAGCUUCGGCGCCUGCGCCGAUGAAGGUGUAGAGACUAGACGGCACCCACCUAAGGCAAACGCUAUGGUGAAGGCAUAGUCCAGGGAGUGGCGAAAGUCACACAAACCGG
# Variants of: B1
# Experiment: reverse-splicing fitness (ratio to wild type); higher = more active; in vitro selection; Mg2+ level not given
# Outline: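 An in vitro group I ribozyme library with randomized positions was T7-transcribed and gel-purified. In triplicate, 10 pmol RNA in EPPS pH 7.5 was reacted with 50 pmoles of a 30-nt RNA substrate for 1 h at 37 °C across several added MgCl2 levels (1–48 mM), then stopped with EDTA. Products were reverse transcribed from a substrate-complementary primer, PCR-amplified and sequenced (HiSeq 4000). Fitness is a variant's read proportion after selection over that before, normalised to wild type.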
row,Variant,reverse-splicing fitness
1,C82A A111C A120C A145U C150U C169A U176C,0.0129
2,C82A A111C A120C A145U C150U C169A U176G,0.00742
3,C82A A111C A120C A145U C150U C169G,0.00764
4,C82A A111C A120C A145U C150U C169G U176A,0.0127
5,C82A A111C A120C A145U C150U C169G U176C,0.015
6,C82A A111C A120C A145U C150U C169G U176G,0.00815
7,C82A A111C A120C A145U C150U C169U,0.0124
8,C82A A111C A120C A145U C150U C169U U176A,0.0135
9,C82A A111C A120C A145U C150U C169U U176C,0.0133
10,C82A A111C A120C A145U C150U C169U U176G,0.00824
11,C82A A111C A120C A145U C150U U176A,0.0128
12,C82A A111C A120C A145U C150U U176C,0.0187
13,C82A A111C A120C A145U C150U U176G,0.00695
14,C82A A111C A120C A145U C169A,0.00864
15,C82A A111C A120C A145U C169A U176A,0.0132
16,C82A A111C A120C A145U C169A U176C,0.0162
17,C82A A111C A120C A145U C169A U176G,0.00807
18,C82A A111C A120C A145U C169G,0.0102
19,C82A A111C A120C A145U C169G U176A,0.0151
20,C82A A111C A120C A145U C169G U176C,0.0178
21,C82A A111C A120C A145U C169G U176G,0.00709

row,Variant,reverse-splicing fitness
1,C82A A111C A120C A145U C169U,0.0133
2,C82A A111C A120C A145U C169U U176A,0.0155
3,C82A A111C A120C A145U C169U U176C,0.0141
4,C82A A111C A120C A145U C169U U176G,0.00589
5,C82A A111C A120C A145U U176A,0.0147
6,C82A A111C A120C A145U U176C,0.0164
7,C82A A111C A120C A145U U176G,0.00692
8,C82A A111C A120C C150A,0.0114
9,C82A A111C A120C C150A C169A,0.0111
10,C82A A111C A120C C150A C169A U176A,0.0196
11,C82A A111C A120C C150A C169A U176C,0.0181
12,C82A A111C A120C C150A C169A U176G,0.00827
13,C82A A111C A120C C150A C169G,0.00949
14,C82A A111C A120C C150A C169G U176A,0.0168
15,C82A A111C A120C C150A C169G U176C,0.0202
16,C82A A111C A120C C150A C169G U176G,0.00878
17,C82A A111C A120C C150A C169U,0.0133
18,C82A A111C A120C C150A C169U U176A,0.0173
19,C82A A111C A120C C150A C169U U176C,0.015
20,C82A A111C A120C C150A C169U U176G,0.00868
21,C82A A111C A120C C150A U176A,0.0118

row,Variant,reverse-splicing fitness
1,C82A A111C A120C C150A U176C,0.0178
2,C82A A111C A120C C150A U176G,0.00759
3,C82A A111C A120C C150G,0.0074
4,C82A A111C A120C C150G C169A,0.00831
5,C82A A111C A120C C150G C169A U176A,0.00991
6,C82A A111C A120C C150G C169A U176C,0.0121
7,C82A A111C A120C C150G C169A U176G,0.00778
8,C82A A111C A120C C150G C169G,0.00682
9,C82A A111C A120C C150G C169G U176A,0.00786
10,C82A A111C A120C C150G C169G U176C,0.00606
11,C82A A111C A120C C150G C169G U176G,0.00646
12,C82A A111C A120C C150G C169U,0.0115
13,C82A A111C A120C C150G C169U U176A,0.00611
14,C82A A111C A120C C150G C169U U176C,0.0102
15,C82A A111C A120C C150G C169U U176G,0.00771
16,C82A A111C A120C C150G U176A,0.00563
17,C82A A111C A120C C150G U176C,0.00863
18,C82A A111C A120C C150G U176G,0.00353
19,C82A A111C A120C C150U,0.0169
20,C82A A111C A120C C150U C169A,0.0121
21,C82A A111C A120C C150U C169A U176A,0.0146

row,Variant,reverse-splicing fitness
1,C82A A111C A120C C150U C169A U176C,0.0126
2,C82A A111C A120C C150U C169A U176G,0.00849
3,C82A A111C A120C C150U C169G,0.00849
4,C82A A111C A120C C150U C169G U176A,0.0139
5,C82A A111C A120C C150U C169G U176C,0.016
6,C82A A111C A120C C150U C169G U176G,0.00721
7,C82A A111C A120C C150U C169U,0.0115
8,C82A A111C A120C C150U C169U U176A,0.0177
9,C82A A111C A120C C150U C169U U176C,0.0139
10,C82A A111C A120C C150U C169U U176G,0.0075
11,C82A A111C A120C C150U U176A,0.0123
12,C82A A111C A120C C150U U176C,0.0187
13,C82A A111C A120C C150U U176G,0.0074
14,C82A A111C A120C C169A,0.00922
15,C82A A111C A120C C169A U176A,0.0163
16,C82A A111C A120C C169A U176C,0.0179
17,C82A A111C A120C C169A U176G,0.00712
18,C82A A111C A120C C169G,0.0083
19,C82A A111C A120C C169G U176A,0.0174
20,C82A A111C A120C C169G U176C,0.0233
